Paper PMC3902935

B1: JL986 60-nt ssDNA (ssDNA)
DNA: ATTATTATTATTATTATTATTATTATTATTATTTCATTTATTTATTTATTTATTTATTTA
B2: JL987 70-nt ssDNA (ssDNA)
DNA: ATTATTATTATTATTATTATTATTATTATTATTATTATTTCATTTATTTATTTATTTATTTATTTATTTA
B3: JL988 80-nt ssDNA (ssDNA)
DNA: ATTATTATTATTATTATTATTATTATTATTATTATTATTATTATTTCATTTATTTATTTATTTATTTATTTATTTATTTA

Assays:
APOBEC3A (A3A) WT [1] = biological target: T1, APOBEC3A (A3A) WT (human, UniProt P31941 1-199); assay: EMSA; 20 nM DNA; NMR: 25 mM sodium phosphate pH 6.9, 10 mM DTT, 25 C, 0.074 mM A3A; EMSA: protocol of Byeon et al. (ref 16), buffer not given, 20 nM DNA, 25-100 uM A3A
APOBEC3A (A3A) WT [2] = biological target: T1, APOBEC3A (A3A) WT; assay: NMR titration (1H-15N HSQC); 25 mM sodium phosphate pH 6.9, 10 mM DTT, 25 C; Zn2+ enzyme; NMR: 25 mM sodium phosphate pH 6.9, 10 mM DTT, 25 C, 0.074 mM A3A; EMSA: protocol of Byeon et al. (ref 16), buffer not given, 20 nM DNA, 25-100 uM A3A
APOBEC3A E72Q = APOBEC3A E72Q (human, UniProt P31941 1-199, E72Q); assay: EMSA; 60 or 80 uM protein; similar to WT; NMR: 25 mM sodium phosphate pH 6.9, 10 mM DTT, 25 C, 0.074 mM A3A; EMSA: protocol of Byeon et al. (ref 16), buffer not given, 20 nM DNA, 25-100 uM A3A
APOBEC3A Y130F = APOBEC3A Y130F (human, UniProt P31941 1-199, Y130F); assay: as above
APOBEC3A D131E = APOBEC3A D131E (human, UniProt P31941 1-199, D131E); assay: as above
APOBEC3A D131E, sequence (P31941 whole entry D131E): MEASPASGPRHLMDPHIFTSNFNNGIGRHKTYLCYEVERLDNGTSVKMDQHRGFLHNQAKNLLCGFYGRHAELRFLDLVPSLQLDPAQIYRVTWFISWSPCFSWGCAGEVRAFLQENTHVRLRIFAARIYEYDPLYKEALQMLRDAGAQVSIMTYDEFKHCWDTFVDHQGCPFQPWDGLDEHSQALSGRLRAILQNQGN

T1 sequence (P31941 whole entry): as the sequence (P31941 whole entry D131E) above, with E131D counted along it
APOBEC3A Y130F, sequence (P31941 whole entry Y130F): as the sequence (P31941 whole entry D131E) above, with Y130F, E131D counted along it
APOBEC3A E72Q, sequence (P31941 whole entry E72Q): as the sequence (P31941 whole entry D131E) above, with E72Q, E131D counted along it

Binder | binding result (APOBEC3A (A3A) WT [1]) | Kd (APOBEC3A (A3A) WT [2]) [µM] | binding result (APOBEC3A E72Q) | binding result (APOBEC3A Y130F) | binding result (APOBEC3A D131E)
B1 | binds |  |  |  | 
B2 | binds |  |  |  | 
AUUUCAUUU (ssRNA) [JL1181 9-nt ssRNA] |  | 420 ± 70 |  |  | 
B3 | binds |  | binds | binds | binds
